{"source": "patent US20040161826A1", "about": "“Thermostable enzymes having aminotransferase activity, nucleic acids encoding them and methods of making and using them” (priority 1999, published 2004)", "key": {"[1]": {"molecular_target": "aromatic amino acid aminotransferase (Pyrococcus horikoshii, UniProt O59096)", "test": "Amino group transfer reaction with phenylalanine as donor, phenylpyruvic acid traced at 280 nm", "format": "biochemical, Pyrococcus horikoshi", "details": "receptor 2-ketoglutaric acid, pH 8.0, 25° C.", "procedure": "Then, kinetic parameters of each substrate were compared. […] Next, a change in the amount of NADH was traced with a change in absorbance at 340 nm, and then kinetic parameters, Kcat and Km values were measured.\nWhen hydrophobic substrate (phenylalanine) was used as an amino group donor, the amount of reaction product (phenylpyruvic acid) was traced with a change in absorbance at 280 nm, and then Kcat and Km values were measured."}, "[2]": {"substrate": "N[C@@H](CC(=O)O)C(=O)O", "test": "purified protein, by the assay type", "details": "other: amino group donor aspartic acid, receptor 2-ketoglutaric acid, pH 8.0, 25° C."}, "[3]": {"test": "Optimum temperature and optimum pH from Kapp, DTNB reduction traced at 412 nm", "format": "biochemical, Pyrococcus horikoshi", "details": "substrates L-cysteic acid and 2-ketoglutaric acid", "procedure": "The presence of aminotransferase activity can be determined by any means.\nOptimum temperature and optimum pH were measured as described below using L-cysteic acid and 2-ketoglutaric acid as substrates. Optimum temperature was determined according to the temperature dependence of the Kapp value which was determined by varying the reaction temperature from 30° C. to 98° C. in 50 mM phosphate buffer (pH6.5), tracing an increase in absorbance at 412 nm resulting from reduction of 5,5′-Dithiobis ([…]) (DTNB), finding Kapp value from the initial velocity.\nOptimum pH was determined according to pH dependence of the Kapp value which was determined under the measurement conditions as described above by maintaining the reaction temperature at 90° C., and varying the pH of an enzyme reaction solution from 3.4 to 7.5, finding Kapp."}, "[4]": {"test": "Thermal stability: residual activity after heating", "format": "physicochemical, Pyrococcus horikoshi", "details": "pH 6.5, 95° C. for 6 hours, 0.1 mg/ml in 20 mM phosphate buffer", "procedure": "Thermal stability was analyzed by measurement of residual activity after heating and with a differential scanning calorimeter (DSC). To measure residual activity after heating, this enzyme (0.1 mg/ml) was heated for a certain period of time at 95° C. and at 110° C. in 20 mM phosphate buffer (pH6.5) and quenched. Then, residual activity was measured."}, "[5]": {"test": "Thermal stability: differential scanning calorimeter (DSC)", "format": "physicochemical, Pyrococcus horikoshi", "procedure": "Thermal stability was analyzed by measurement of residual activity after heating and with a differential scanning calorimeter (DSC).\nIn measurement with DSC, a DSC (type CSC5100™, Calolimetry Science) was used. Cell temperature was increased from 0 to 125° C. (1 K/min), and then a change in thermal capacity of the enzyme protein in 20 mM phosphate buffer (pH6.5) was measured. Enzyme concentration employed was 1 mg/ml."}, "[6]": {"test": "pH stability by circular dichrograph (CD)", "format": "physicochemical, Pyrococcus horikoshi", "details": "25° C.", "procedure": "pH stability was analyzed using a circular dichrograph (CD, type J-720W, JASCO Corporation). The pH of an enzyme solution (0.1 mg/ml) was varied from 1.0 to 13.0, a change in intensity of negative ellipicity[q] at 25° C. was measured, so that pH stability was found."}, "Isoelectric focusing": {"test": "Isoelectric focusing", "format": "physicochemical, Pyrococcus horikoshi"}}, "data": [{"molecule": "N[C@@H](Cc1ccccc1)C(=O)O", "note": "[phenylalanine]", "values": [{"measurement": "Kcat", "setting": "[1]", "value": 12, "unit": "s⁻¹"}]}, {"molecule": "aromatic amino acid aminotransferase (Pyrococcus horikoshii OT3) (protein) MALSDRLELVSASEIRKLFDIAAGMKDVISLGIGEPDFDTPQHIKEYAKEALDKGLTHYGPNIGLLELREAIAEKLKKQNGIEADPKTEIMVLLGANQAFLMGLSAFLKDGEEVLIPTPAFVSYAPAVILAGGKPVEVPTYEEDEFRLNVDELKKYVTDKTRALIINSPCNPTGAVLTKKDLEEIADFVVEHDLIVISDEVYEHFIYDDARHYSIASLDGMFERTITVNGFSKTFAMTGWRLGFVAAPSWIIERMVKFQMYNATCPVTFIQYAAAKALKDERSWKAVEEMRKEYDRRRKLVWKRLNEMGLPTVKPKGAFYIFPRIRDTGLTSKKFSELMLKEARVAVVPGSAFGKAGEGYVRISYATAYEKLEEAMDRMERVLKERKLV", "values": [{"measurement": "kcat", "setting": "[2]", "value": 0.18, "unit": "s⁻¹"}, {"measurement": "kcat/Km", "setting": "[2]", "value": 1.7, "unit": "M⁻¹ s⁻¹"}]}, {"molecule": "this enzyme: thermostable aminotransferase of Pyrococcus horikoshi JCM9974, 388 residues, homodimeric, expressed recombinantly in E. coli (protein, listed as Pyrococcus horikoshi) MALSDRLELVSASEIRKLFDIAAGMKDVISLGIGEPDFDTPQHIKEYAKEALDKGLTHYGPNIGLLELREAIAEKLKKQNGIEADPKTEIMVLLGANQAFLMGLSAFLKDGEEVLIPTPAFVSYAPAVILAGGKPVEVPTYEEDEFRLNVDELKKYVTDKTRALIINSPCNPTGAVLTKKDLEEIADFVVEHDLIVISDEVYEHFIYDDARHYSIASLDGMFERTITVNGFSKTFAMTGWRLGFVAAPSWIIERMVKFQMYNATCPVTFIQYAAAKALKDERSWKAVEEMRKEYDRRRKLVWKRLNEMGLPTVKPKGAFYIFPRIRDTGLTSKKFSELMLKEARVAVVPGSAFGKAGEGYVRISYATAYEKLEEAMDRMERVLKERKLV", "values": [{"measurement": "optimum temperature", "setting": "[3]; 50 mM phosphate buffer pH 6.5, 30° C. to 98° C.", "value": 90, "unit": "°C"}, {"measurement": "optimum pH", "setting": "[3]; 90° C., pH 3.4 to 7.5", "value": 6.0}, {"measurement": "Kapp value", "setting": "[3]; pH 6.5, 90° C.", "value": 139, "unit": "s⁻¹"}, {"measurement": "residual activity after heating", "setting": "[4]", "value": "remained stable, or was not deactivated"}, {"measurement": "denaturation", "setting": "[5]; DSC, pH 6.5", "value": "irreversible"}, {"measurement": "enthalpy change", "setting": "[5]; at the melting temperature, pH 6.5", "value": 574, "unit": "kcal/mol"}, {"measurement": "melting temperature (Tm value)", "setting": "[5]; pH 6.5, 20 mM phosphate buffer, 1 mg/ml, 1 K/min", "value": 120.1, "unit": "°C"}, {"measurement": "pH range over which the enzyme remains stable", "setting": "[6]; for 24 hours or more, 0.1 mg/ml", "value": "4 to 11"}, {"measurement": "a-helix content", "setting": "[6]; pH 6.5", "value": 40, "unit": "%"}, {"measurement": "isoelectric point", "setting": "Isoelectric focusing", "value": 5.2}]}]}
